Consider 22 sequences from the DeepSol protein solubility set.

This series in a line: soluble on expression in E. coli; label from the status in PepcDB or PDB records.
In the case of “SLATRRPMSIAEPDTAVSTASFMTAWEFPQGDDSAETPTTPKALQFQEPEYIHIPWDHNTDIAPDLMDLCHVVDDRTKAGKRVLIHCQQGASRSASLIIAYGLFQRPELTVNDAYYAAQAKSQWISPNMKLMYSLQDFQKEVSTKRTAQPSNREG”, the “soluble on expression in E. coli” value is reported as “not soluble”. “SLDITLVFPHQLFADHPAIQAGRTVALIEDPLLFGTDPQWPLRMHHQRRLLHRASMTVYAEQLRGRGFNVIHQRHDAAPDTQGHLQLLHSAGYRHVHLVDLVDHWLERRLNAFAESVALRVSVLPTPMLLTPADVLEKHFGTGKKPLMAKFYEMQRTRLGVLMDAEGRPVGGRWSFDADNRKKLPKDISVPPIPVATPSTVVNTSRQQLAQENLPGVGKLDGFYYP”: the “soluble on expression in E. coli” value was “soluble”.

With “SLFIDAHNHLDFFEEQEKLNKALDIIKNDNIITLGCSMDTKSYKFTKSLALKNKNIIPCFGIHPSRAHENFKNLECFDEYIRESKIIGEIGLDYVWVKEKEKYPHMKRVFTYFLEEAKKYNKITNIHTKGAESEIYNYIKKYELKTPIIHWYSGDKDTLKKLLDYGCYFTISVDIGYSKLSKEIVQLLPIDKILTETDGPTSLEWVNGDYGYPNVIKNVVKEISKIKNIQEEEVKGVIENNFKTLIRKEGITL”, the “soluble on expression in E. coli” value is reported as “not soluble”. For “SLGRTRRKNKPITIKSYVVSSDTWQLGCIEYGSHSMSGQRAYNEDRVCVVPSVDVCTREGCCKAHTKAMFYAVYDGHNGEEAVNYVQEHLHKNIFRSRSFHGDVSKAIRAGFIATDNALRSMVMEKIRGEGFEDQDISPFSSGTTACTAVVRDMQLYIGNLGDSRCVLSRAGRSHLITVDHSCRTNADEQQRVREDGGHYDTDGYLNGAIGVSRAFGAFDKNCGQKLSGLTCEPQIHKETLRREDEFMIIACDGVFDVISCQEAVNCPPERLQHKDKRPADWTPTTPGLGEEKAATAEARPSSSSRSPLAATQSGASAGDRTGVSG” the value was “not soluble”; for “SLHAQQKAEQLAEREEMVAELSAAKQQITQSEHWRAECELLNNEVRSLQSINTSLEADLREVTTRMEAAQQHADDKIRQMINSEQRLSEQFENLANRIFEHSNRRVDEQNRQSLNSLLSPLREQLDGFRRQVQDSFGKEAQERHTLTHEIRNLQQLNAQMAQEAINLTRALKGDNKTQGNWGEVVLTRVLEASGLREGYEYETQVSIENDARSRMQPDVIVRLPQGKDVVIDAKMTLVAYERYFNAEDDYTRESALQEHIASVRNHIRLLGRKDYQQLPGLRTLDYVLMFIPVEPAFLLALDRQPELITEALKNNIMLVSPTTLLVALRTIANLWRYEHQSRNAQQIADRASKLYDKMRLFVDDMSAIGQSLDKAQDNYRQAMKKLSSGRGNVLAQAEAFRGLGVEIKREINPDLAEQAVSQDEEYRLRSVPEQPNDEAYQRDDEYNQQSR”, “not soluble”; for “SLHLGEQIWIYQGKKKEWLLGQIPEVNSALVSLNSDNGAIEAIVGGFSFEQSRFNRATQSLVQVGSSIKPFIYAAAMNKGLSLSTTLSDTPITINKQGQKPWEPKNADKRYEGPLRLRVALGKSKNMVAIRALQMSGVDYVADYLSRFGFNPDQFMATEALALGAASFTPLEMARAYAVFDNGGYLIEPYIIDRILDNQGNELFKANPALACLECNHIDLAYQEPTYFDGVKIHDEDQLRAEIDEINANPAASNTQTEDDQEPEIATTIKPQAPSLMTESIKNDASMRYAPRVISGELAFLMRSALNSAIYGEPGQNWHGTSRAIAKAFKRKDIGGKTGTTNNSKVTWYAGFGANIVTTVYVGFDDNRRDLGKGEAGAKTAMPAWIKYMKVALADKK”, “not soluble”.

Take “SLIENVDAQADSSWPHRGQIEVRNLTVKYTEAGHAVLKNLSFSAEGRQRVGILGRTGSGKSSLFNALLKLVYTDGEISIDGVNWNKMPLEKWRKAFGVVPQKVFIFTGPLRMNLDPYGCHSDEELWRVAEEVGLKTVIEQFPDKLDFQLEYGGYVLSNGHKQLICLARSILSGARILLLDEPSAHLDPVTIKVLKKTLRQSFSTCTILLSEAKVEPLLECDSFLMMDKGQVKTYDSIQKLLNETSDLKQAISPAE”: the “soluble on expression in E. coli” value was “soluble”. For “SLIFILGIFYYLTQPLKSNSVVFIPQGSISQIITYLKQNKYQMSNIDKYILFFLGHPQSGWINIGTKDLNRAEFLHKLTIAKAALQTITLIPGETSVIFLEQAAKQLGLDKDILLKEFQAQAPYDEGVFLPETYKIPKGITENLLIQMLLNHAEISNKKTSEKIFGDYNPKKWHQYIIIASVIQKEAANDNEMPIVASVIYNRLKKGMKLQMDGTLNYGIYSHVKVTPQRIRQDNSFYNTYKFTGLPKEAVCNVSLAAIRAAIFPLKTDYLYFVRDKNTGVHIFSTNIDDHNKAINLQKGK” the value was “soluble”.

With “SLIHIAIVEDENKDRELLKEYLDRFQAEKGEPLFVHVYPDGEEFLESFSSGKFDILLLDIHMQYMNGMATAQEIRKSDENVLIIFITNLVQYAVQGYSVRAFDFIVKPVEYSVFAQKLYRATQRLNRTEG”, the “soluble on expression in E. coli” value is recorded as “soluble”. For “SLIRSMTGFGSASKTQDDLSVSVELKSVNYRFKEVNARLPRPLLYFEDKLKQTILQHIQRGRIELFVSVDSDMLVEKRLEIDWPLLDEFVAAARDMKKRYQLSAEPDVMDFFKLDHVVQVHEEQTQNDKLEALIIDAAEEAVKGLCEMREKEGLLLAKDCLMHIDQLEELVRETELLAADVVSRYRERLYARIKEWTEDVLDESRLVTECAIFADRSDITEEITRLKSHFAQFRDILASGGAVGRKLDFLVQELNREANTIGSKANDHQITKLVVEMKSSIEKIKEQVQNIE” the value was “soluble”; for “SLKKILILDDETSVLNALQRQLIRNNWQVISFKHPATALDYAKHVFFPIVITDYRMPQMSGVEFLLEFQKLQPYAYKIMLSGQAGEYGMTEAINQAKIDYFIHKPWDNCQLLNQIDKGLNHYRQTIKHLLKTNSKRMSREDYLIWYEKLVEQACPSITKVKKNPLGWIEAEEG”, “not soluble”. Take “SLKWDNSYSVHNAKIDEQHKKLFKLAAKVEVVSDRSVSKNEVKELLAEFFNYMKDHFNDEEKYMQLIGYPNLEEHRKIHKEIIQTMINLIKDIKSTNDLKEKLYIVAKKWLLEHILYEDMKVEKWRSSSLSTDDGGDVS”: the “soluble on expression in E. coli” value is recorded as “soluble”. For “SLLTALTADNQELFSLIDCSIDELTQIRSEQAFVCPMCHQSVILKAGPIKIPHFAHRKKNSCWYEAEAETEEHLRLKQLFAEKCLREKLSFQVEAYLPTLKQRPDLLIGKIAIEIQCSPLPIKRLVERTETYQTHGYQVVWILGERLVPKDKLTQLTKQFLYFSESLGFYLWSANKKQERIELLCHIEESQCQQFYRRKQSWDFYEKQLLEIFRLPTANLNLLPDRRHTGQLMHDYYQKLTQQLGYRNAQLLRTQSFLYTKGCHLLQLPPWFYYPGLKLIPSSEEDIHLKMLVWEALKTEEERLVTKQELWRILEAIFLEEGNFVWQPLPNIGLKKLFKIVGNNLLRWLQECYVLIKVNNKYLITSIFLREDPEKLIHWLKKVKKQHFFSHTC” the value was “soluble”; for “SLNAAAADRNKDPILSVLKSRVASNRRLFALEISSGTGQHVVHFAKAFPNITWQPSEVETQSLSSIEAYRQYHRLQNVQPPIYLDVSQSWQTWGGFPAESCDLIININMMHISPLACTTGLFHGVGQILKPQGLLLTYGPYAFNGSIVPQSNFDFDQSLRYRNPEWGLRDASFLTTLGQENGLRLEEIVDMPANNKCLLFRKDSVV”, “soluble”.

Turning to “SLNERVMMINANGVPIALYNRGHLGSGHFGAVIKASLDDGTLYAAKVPYSQIVPNADATSAELEAEISSARAELVKTIRQELDVRDKLVAKGLTLTETAEQYGLPLCQMTLTLPENKATVVRRGSRLVVVSKEVMLLPLIDGSPSNSLVQSQPPFLFQRAVAREAIIALAKLHELGFAHGDVKLNNMMIDVHGFGHMLDMGSVRPVDSCVSEEDKYYLRLWAPELAKSQHTSQQTCLKRGALDVWALGLAIFEFVCFNRLPYSLSNLPSSLWSRVEHLSRLRLSDFSAKDCNESDPAVMGIVAQFLNPNPEERPELPKFVSSYTFFRQAPGVTSHLTRIPTTELSSHR”, the “soluble on expression in E. coli” value is recorded as “not soluble”.

As to “SLNQDEKRTFRLEKEQELRFEVSNENKVYLTLQSGTAEVFGIELPKKKPVELCDTKLAVFTWQGCELQLQGITDLEYVANETPMHLYLKAHYLLDSMRRKARQQGTKGPKVVIVGPQDSGKSSLCQILSCYAMKGGKKILYASIDFQQGSFSIPGAIGASSVEHVTIEDGMIFENNLVYFYGHTVASENPRLLEKLVSNLSNLLDAKLEDSEMDLGHMGFIADSFGSLDGSNYDVLKQVLKEIKANVIIVLGSERLYADIQRDLCSEQRQIIQLPKSGGVVGRDQYLRRRLQEMQLRCYFYGSDGNLNPFTTVVTFDQVHIVRVGIGLHVPATALPLGAQSTLDPLQISQVTPSTELLHCMLGVSQAEEEEQIVDSPVYGFVHVAKVDISKRTISLLAPSPGKLPGSFLVMGSIRWLE”, the “soluble on expression in E. coli” value is “soluble”. Turning to “SLNSLVSWQLLLFLCATHFGEPLEKVASVGNSRPTGQQLESLGLLAPGEQSLPCTERKPAATARLSRRGTSMSPPPESSGSPQQPGLSAPHSRQIPAPQGAVMVQREKDLPNYNWNSFGLRFGKREAAPGNHGRSAGR”, the “soluble on expression in E. coli” value is “soluble”. For “SLNVLCNNPHTADCNNDAQVDRYFREGTTCLMSPACTSEGYASQHECQQACFVGGEDHSSEMHSSCLGDPPTSCAEGTDITYYDSDSKTCKVLAASCPSGENTFESEVECQVACGAPIEG”, the “soluble on expression in E. coli” value is given as “soluble”. As to “SLPSYVVPEEPLLSAPTVAELTQAVNGAVVSGDVALREREVMGVLAAGMTADHVLERLTDGMAVITPGDRSDVVLAVASAHAAEGFPSLSCIVLNGGFQLHPAIAALVSGLRLRLPVIATALGTYDTASAAASARGLVTATSQRKIDTALELMDRHVDVAGLLAQLTI”, the “soluble on expression in E. coli” value is given as “soluble”.

For “SLPTGGAPGRRWVGCRDMEHEVFVPVPAERLRDVLADPVRVARAVPGLQQDAGAEPVAGRLKVRIGSHSITYRGSLRLSARGDGTYAVEGDATESRGTGAVALALTLRADDAEGGATLTFTGTATADGRVAELPPDSVASAANRLLARFAENLGTAAQAPPAPEPEPSPQPEPRPASVFDTEVPPSSLADSGGGSDSDSDGDADEDTDAGADADADAQADEKAEAEGDADRGGRTDDEPAVSPPAEAAHARRTMIGRSAEEVDHAPPRGRYAPVPAPQPSAVGAPLRW”, the “soluble on expression in E. coli” value is “soluble”. Take “SLPWLHRETARSFGGAGSTAGYEQVTAYTLTGQLQSRHLNLPQLDCDYDWNDNGQLIRISGPQESREYRYSDTGRLTGVHTTAANLDIDIPYATDPAGNRLPDPELHPDSTLTAWPDNRIAEDAHYVYRYDEYGRLTEKTDRIPEGVIRMHDERTHHYHYDNQHRLVFYTRIQYGEPLVESRYLYDPLGRRTGKRVWRRERDLTGWMSLSRKPEVTWYGWDGDRLTTVQTGTTRIQTVYRPGSFTPLIRIETENGEREKAQRRSLAEKLQQEGSEDGHGVVFPAELVRMLDRLEEEIRADRVSSESRAWLAQCGLTVEQLEKQVEPEYTPARTLHLYHCDHRGLPLALISEDGNTAWSAEYDEWGNQLNEENPHHLHQPYRLPGQQHDEESGLYYNRHRYYDPLQGRYITPDPIGLRGGWNMYQYPLNPIQVIDPMGLDAIENMTSGGLIYAVSGVPGLIVANSITNSAYQFGYDMDAIVGGAHNGAADAMRYCYLMCRMTKT”: the “soluble on expression in E. coli” value is on record as “not soluble”. Turning to “SLPYRGTLVMLMNEEVNKIITLCGKDWAKIGVEFIFLGGKQECENCKIKKTCLKLKEGAKYKIVGLRDGAVQECPLHDEGVVAVEVVELPIIALVDSKIAVEGAKIHYEQRKCDVYDCSMYSLCHPIELNNGETVIVEKVIGDAPEQCRKGHSVIVAELRRAEE”, the “soluble on expression in E. coli” value is “soluble”.
